Key:
[1] = biological target: T1, purified recombinant MEKK1 NH2-terminal fusion protein (50 kD) (UniProt P53349)
T1 sequence: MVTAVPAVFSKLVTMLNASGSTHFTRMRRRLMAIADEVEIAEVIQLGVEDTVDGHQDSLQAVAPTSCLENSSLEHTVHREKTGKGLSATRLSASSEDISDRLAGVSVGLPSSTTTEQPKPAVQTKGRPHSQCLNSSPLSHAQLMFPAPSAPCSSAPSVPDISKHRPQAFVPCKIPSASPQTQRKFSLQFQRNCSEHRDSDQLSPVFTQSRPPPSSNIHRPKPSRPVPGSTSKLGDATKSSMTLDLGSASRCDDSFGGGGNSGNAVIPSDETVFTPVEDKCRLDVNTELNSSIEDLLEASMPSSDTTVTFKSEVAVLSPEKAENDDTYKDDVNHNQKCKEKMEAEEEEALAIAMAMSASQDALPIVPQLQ

[2] = tested on: purified recombinant catalytically inactive MEK-1

98 kD MEKK protein (98 kD MEKK1) of PC12, Rat1a, NIH3T3 and Swiss3T3 cells
phosphorylation of the MEKK1 NH2-terminal fusion protein by immunoprecipitates (in vitro kinase assay) [1]: MEKK1 immunoprecipitated from lysates of EGF-stimulated and unstimulated PC12 cells robustly phosphorylated the inert 50 kD MEKK1 NH2-fusion protein | phosphorylation of kinase inactive MEK-1 by Mono Q fractions (in vitro kinase assay) [2]: Fractions 10-14 of lysate from PC 12 cells treated with EGF phosphorylated MEK-1
